Experimental data as given in patent US7786083B2, “Metastin derivatives and use thereof” (Takeda Pharmaceutical Company Limited, priority 2006, dated 2010).
Each block holds one molecule with its values, some of them ahead of it. [ ]: non-standard residue; d: D form. Arg(Me) = CNC(=N)NCCC[C@H](N)C(=O)O; Ala(cPr) = N[C@@H](CC1CC1)C(=O)O; Hyp = O=C(O)[C@@H]1C[C@@H](O)CN1; 2Pal = N[C@@H](Cc1ccccn1)C(=O)O; 3Pal = N[C@@H](Cc1cccnc1)C(=O)O; 4Pal = N[C@@H](Cc1ccncc1)C(=O)O; Cha = N[C@@H](CC1CCCCC1)C(=O)O

Target: metastin receptor (OT7T175) stably expressed on CHO/dhfr- cells (human or rat, not given)
Assay: cell-based or functional assay

Molecule: des(1)-Ac-[D-Tyr2,Hyp3,Thr5,Dap7,Arg(Me)9,Trp10]MS10 (peptide)
Specific Activity (EC50 of test compound based on EC50 of Metastin (45-54)); agonist activity, intracellular calcium ion level, FLIPR (ratio to Metastin (45-54)): 1.3

Molecule: des(1)-Ac-[D-Tyr2,Hyp3,Thr5,Phe6Ψ(CH2CH2)AzaGly7,Arg(Me)9,Trp10]MS10 (peptide)
Specific Activity (EC50 of test compound based on EC50 of Metastin (45-54)); agonist activity, intracellular calcium ion level, FLIPR (ratio to Metastin (45-54)): 0.6

Molecule: des(1)-Ac-[D-Tyr2,Hyp3,Thr5,Cha6,Ala7,Arg(Me)9,Trp10]MS10 (peptide)
Specific Activity (EC50 of test compound based on EC50 of Metastin (45-54)); agonist activity, intracellular calcium ion level, FLIPR (ratio to Metastin (45-54)): 0.5

B1: des(1)-Ac-[D-Tyr2,Hyp3,Thr5,Arg(Me)9,Trp10]MS10 (peptide)
peptide: Ac-[dY][Hyp]NTFGL[Arg(Me)]W-NH2
Specific Activity (EC50 of test compound based on EC50 of Metastin (45-54)); agonist activity, intracellular calcium ion level, FLIPR (ratio to Metastin (45-54)): 1.2

B2: des(1)-Ac-[D-Tyr2,Glu3,Thr5,Arg(Me)9,Trp10]MS10 (peptide)
peptide: Ac-[dY]ENTFGL[Arg(Me)]W-NH2
Specific Activity (EC50 of test compound based on EC50 of Metastin (45-54)); agonist activity, intracellular calcium ion level, FLIPR (ratio to Metastin (45-54)): 0.5

B4: des(1)-Ac-[D-Tyr2,Hyp3,Thr5,Gly7Ψ(CH2NH)Leu8,Arg(Me)9,Trp10]MS10 (peptide)
peptide: Ac-[dY][Hyp]NTFGL[Arg(Me)]W-NH2
modifications: also: Gly6-Leu7 -CONH- replaced by -CH2NH-
Specific Activity (EC50 of test compound based on EC50 of Metastin (45-54)); agonist activity, intracellular calcium ion level, FLIPR (ratio to Metastin (45-54)): 2.9

B6: des(1)-Ac-[D-Tyr2,Hyp3,Thr5,Ala7,Arg(Me)9,Trp10]MS10 (peptide)
peptide: Ac-[dY][Hyp]NTFAL[Arg(Me)]W-NH2
Specific Activity (EC50 of test compound based on EC50 of Metastin (45-54)); agonist activity, intracellular calcium ion level, FLIPR (ratio to Metastin (45-54)): 0.5

B7: des(1)-Ac-[D-Tyr2,Glu3,Thr5,Cha6,Arg(Me)9,Trp10]MS10 (peptide)
peptide: Ac-[dY]ENT[Cha]GL[Arg(Me)]W-NH2
Specific Activity (EC50 of test compound based on EC50 of Metastin (45-54)); agonist activity, intracellular calcium ion level, FLIPR (ratio to Metastin (45-54)): 0.6

B8: des(1)-Ac-[D-Tyr2,Hyp3,Thr5,Phe6Ψ(CH2CH2)Gly7,Arg(Me)9,Trp10]MS10 (peptide)
peptide: Ac-[dY][Hyp]NTFGL[Arg(Me)]W-NH2
modifications: also: Phe5-Gly6 amide bond replaced by -CH2CH2-
Specific Activity (EC50 of test compound based on EC50 of Metastin (45-54)); agonist activity, intracellular calcium ion level, FLIPR (ratio to Metastin (45-54)): 1.3

B12: des(1)-Ac-[D-Tyr2,Hyp3,Thr5,Phe6Ψ(CH2O)Gly7,Arg(Me)9,Trp10]MS10 (peptide)
peptide: Ac-[dY][Hyp]NTFGL[Arg(Me)]W-NH2
modifications: also: Phe5-Gly6 amide bond replaced by -CH2O-
Specific Activity (EC50 of test compound based on EC50 of Metastin (45-54)); agonist activity, intracellular calcium ion level, FLIPR (ratio to Metastin (45-54)): 0.5

B13: des(1)-Ac-[D-Tyr2,Hyp3,Thr5,Ala(cPr)6,Arg(Me)9,Trp10]MS10 (peptide)
peptide: Ac-[dY][Hyp]NT[Ala(cPr)]GL[Arg(Me)]W-NH2
Specific Activity (EC50 of test compound based on EC50 of Metastin (45-54)); agonist activity, intracellular calcium ion level, FLIPR (ratio to Metastin (45-54)): 1.9

Continued, values first:

Specific Activity (EC50 of test compound based on EC50 of Metastin (45-54)); agonist activity, intracellular calcium ion level, FLIPR (ratio to Metastin (45-54)): 0.4
Molecule: des(1)-Ac-[D-Tyr2,Pro(4F)3,Thr5,Cha6,Ala(cPr)8,Arg(Me)9,Trp10]MS10 (peptide)

Specific Activity (EC50 of test compound based on EC50 of Metastin (45-54)); agonist activity, intracellular calcium ion level, FLIPR (ratio to Metastin (45-54)): 0.9
B3: des(1)-Ac-[D-Tyr2,Hyp3,Thr5,Pya(4)6,Arg(Me)9,Trp10]MS10 (peptide)
peptide: Ac-[dY][Hyp]NT[4Pal]GL[Arg(Me)]W-NH2

Specific Activity (EC50 of test compound based on EC50 of Metastin (45-54)); agonist activity, intracellular calcium ion level, FLIPR (ratio to Metastin (45-54)): 1.1
B5: des(1)-Ac-[D-Tyr2,Hyp3,Thr5,Phe6Ψ(COCH2)Gly7,Arg(Me)9,Trp10]MS10 (peptide)
peptide: Ac-[dY][Hyp]NTFGL[Arg(Me)]W-NH2
modifications: also: Phe5-Gly6 amide bond replaced by -COCH2-

Specific Activity (EC50 of test compound based on EC50 of Metastin (45-54)); agonist activity, intracellular calcium ion level, FLIPR (ratio to Metastin (45-54)): 1.7
B9: des(1)-Ac-[D-Tyr2,Hyp3,Thr5,Val7,Arg(Me)9,Trp10]MS10 (peptide)
peptide: Ac-[dY][Hyp]NTFVL[Arg(Me)]W-NH2

Specific Activity (EC50 of test compound based on EC50 of Metastin (45-54)); agonist activity, intracellular calcium ion level, FLIPR (ratio to Metastin (45-54)): 1.2
B10: des(1)-Ac-[D-Tyr2,Hyp3,Thr5,Pya(2)6,Arg(Me)9,Trp10]MS10 (peptide)
peptide: Ac-[dY][Hyp]NT[2Pal]GL[Arg(Me)]W-NH2

Specific Activity (EC50 of test compound based on EC50 of Metastin (45-54)); agonist activity, intracellular calcium ion level, FLIPR (ratio to Metastin (45-54)): 0.9
B11: des(1)-Ac-[D-Tyr2,Hyp3,Thr5,Pya(3)6,Arg(Me)9,Trp10]MS10 (peptide)
peptide: Ac-[dY][Hyp]NT[3Pal]GL[Arg(Me)]W-NH2
